# Measured values: US10280205B2, “Method for treating cancer with an activated T lymphocyte that selectively recognizes a cancer cell consisting of specific peptide” (immatics biotechnologies GmbH, priority 2015, dated 2019)
# Biological target: HLA-A*02:01 (Homo sapiens, UniProt P04439, D140Y/D185E/D98H/E176V/E277Q/G131W/G231S/I119V/I121R/I166T/I218V/L300P/L318F/N151K/N90K/P208A/P217A/Q86G/Q94H/R138H/R169H/T345S)
# Experiment: MHC binding assay: UV-ligand exchange with beta2m ELISA (exchange yield)
# Details: binding to HLA-A*02:01, β2m ELISA
# Outline: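 Exchange yield reflects how much β2m remains bound, measured by ELISA: streptavidin capture of 100-fold diluted monomers, HRP anti-β2m at 37° C. for 1 h, TMB read at 450 nm. Monomers come from UV cleavage of a conditional HLA-A*02:01 ligand in the presence of the candidate peptide.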
row,Substance,"Peptide exchange (MHC class I binding score, peptide exchange yield)"
1,392 (ALLHPQGFEV; listed as Homo sapiens) [compound 392],“++” (≥20% = ++)
2,162 (YQQAQVPSV; listed as Homo sapiens) [compound 162],“+++” (≥50 = +++)
3,376 (AMFESSQNVLL; listed as Homo sapiens) [compound 376],“++” (≥20% = ++)
4,494 (ALQPEPIKV; listed as Homo sapiens) [compound 494],“++” (≥20% = ++)
5,437 (SMAPGLVIQAV; listed as Homo sapiens) [compound 437],“+++” (≥50 = +++)
6,45 (SLWQDIPDV; listed as Homo sapiens) [compound 45],“+++” (≥50 = +++)
7,87 (ALPEAPAPLLPHIT; listed as Homo sapiens) [compound 87],“++” (≥20% = ++)
8,165 (SLLDEIRAV; listed as Homo sapiens) [compound 165],“+++” (≥50 = +++)
9,183 (FGLDLVTEL; listed as Homo sapiens) [compound 183],“+++” (≥50 = +++)
10,224 (TLIDAQWVL; listed as Homo sapiens) [compound 224],“+++” (≥50 = +++)
11,452 (ILLEHGADPNL; listed as Homo sapiens) [compound 452],“+++” (≥50 = +++)
12,67 (TLLAEALVTV; listed as Homo sapiens) [compound 67],“+++” (≥50 = +++)
13,348 (ILLDVKTRL; listed as Homo sapiens) [compound 348],“++++” (≥75% = ++++)
14,356 (KLLGKLPEL; listed as Homo sapiens) [compound 356],“+++” (≥50 = +++)
15,97 (SLINGSFLV; listed as Homo sapiens) [compound 97],“+++” (≥50 = +++)
16,610 (LLAPTPYIIGV; listed as Homo sapiens) [compound 610],“+++” (≥50 = +++)
17,21 (VLDELDMEL; listed as Homo sapiens) [compound 21],“++” (≥20% = ++)
18,54 (SLLEQGKEPWMV; listed as Homo sapiens) [compound 54],“+++” (≥50 = +++)
19,192 (KMLDGASFTL; listed as Homo sapiens) [compound 192],“+++” (≥50 = +++)
20,108 (ALFPGVALLLA; listed as Homo sapiens) [compound 108],“++++” (≥75% = ++++)
21,313 (VLFDDELLMV; listed as Homo sapiens) [compound 313],“+++” (≥50 = +++)
22,622 (RLLGEEVVRVLQA; listed as Homo sapiens) [compound 622],“+++” (≥50 = +++)
23,369 (GLFPEHLIDV; listed as Homo sapiens) [compound 369],“+++” (≥50 = +++)

row,Substance,"Peptide exchange (MHC class I binding score, peptide exchange yield)"
1,412 (YLDDLNEGVYI; listed as Homo sapiens) [compound 412],“++” (≥20% = ++)
2,204 (KIAENVEEV; listed as Homo sapiens) [compound 204],“++” (≥20% = ++)
3,579 (NLMEMVAQL; listed as Homo sapiens) [compound 579],“++” (≥20% = ++)
4,473 (AMATESILHFA; listed as Homo sapiens) [compound 473],“+++” (≥50 = +++)
5,322 (TLMTSLPAL; listed as Homo sapiens) [compound 322],“+++” (≥50 = +++)
6,606 (ALWETEVYI; listed as Homo sapiens) [compound 606],“+++” (≥50 = +++)
7,616 (VLIDEVESL; listed as Homo sapiens) [compound 616],“+++” (≥50 = +++)
8,554 (LLMPSSEDLLL; listed as Homo sapiens) [compound 554],“+++” (≥50 = +++)
9,99 (ALVSKGLATV; listed as Homo sapiens) [compound 99],“++” (≥20% = ++)
10,619 (ALQDRVPLA; listed as Homo sapiens) [compound 619],“+++” (≥50 = +++)
11,405 (ALYDVFLEV; listed as Homo sapiens) [compound 405],“++” (≥20% = ++)
12,257 (SIFSAFLSV; listed as Homo sapiens) [compound 257],“+++” (≥50 = +++)
13,177 (YLLPEEYTSTL; listed as Homo sapiens) [compound 177],“++++” (≥75% = ++++)
14,288 (NLINEINGV; listed as Homo sapiens) [compound 288],“+++” (≥50 = +++)
15,516 (AVGPASILKEV; listed as Homo sapiens) [compound 516],“++” (≥20% = ++)
16,298 (VMITKLVEV; listed as Homo sapiens) [compound 298],“+++” (≥50 = +++)
17,231 (FLSPQQPPLLL; listed as Homo sapiens) [compound 231],“++” (≥20% = ++)
18,546 (VMIAGKVAVV; listed as Homo sapiens) [compound 546],“+++” (≥50 = +++)
19,346 (LLDSKVPSV; listed as Homo sapiens) [compound 346],“+++” (≥50 = +++)
20,114 (SLVGEPILQNV; listed as Homo sapiens) [compound 114],“++” (≥20% = ++)
21,527 (FLLEPGNLEV; listed as Homo sapiens) [compound 527],“++++” (≥75% = ++++)
22,28 (QLLDETSAITL; listed as Homo sapiens) [compound 28],“+++” (≥50 = +++)
23,476 (ALMERTGYSMV; listed as Homo sapiens) [compound 476],“+++” (≥50 = +++)

row,Substance,"Peptide exchange (MHC class I binding score, peptide exchange yield)"
1,148 (ALNPEIVSV; listed as Homo sapiens) [compound 148],“++” (≥20% = ++)
2,359 (YLLPESVDL; listed as Homo sapiens) [compound 359],“+++” (≥50 = +++)
3,572 (ALADLIEKELSV; listed as Homo sapiens) [compound 572],“+++” (≥50 = +++)
4,53 (KMIETDILQKV; listed as Homo sapiens) [compound 53],“++++” (≥75% = ++++)
5,205 (SLYPGTETMGL; listed as Homo sapiens) [compound 205],“+++” (≥50 = +++)
6,588 (SLLPLSHLV; listed as Homo sapiens) [compound 588],“+++” (≥50 = +++)
7,575 (YLISQVEGHQV; listed as Homo sapiens) [compound 575],“+++” (≥50 = +++)
8,119 (FLYIGDIVSL; listed as Homo sapiens) [compound 119],“++++” (≥75% = ++++)
9,9 (GAAKDLPGV; listed as Homo sapiens) [compound 9],“++” (≥20% = ++)
10,80 (FLYDNLVESL; listed as Homo sapiens) [compound 80],“++” (≥20% = ++)
11,353 (YLFEMDSSL; listed as Homo sapiens) [compound 353],“++” (≥20% = ++)
12,1 (SLMEPPAVLLL; listed as Homo sapiens) [compound 1],“+++” (≥50 = +++)
13,541 (SMLEPVPEL; listed as Homo sapiens) [compound 541],“+++” (≥50 = +++)
14,188 (GLFPVTPEAV; listed as Homo sapiens) [compound 188],“+++” (≥50 = +++)
15,409 (LLDAMNYHL; listed as Homo sapiens) [compound 409],“++” (≥20% = ++)
16,515 (LLQELVLFL; listed as Homo sapiens) [compound 515],“+++” (≥50 = +++)
17,289 (VLLEIEDLQV; listed as Homo sapiens) [compound 289],“++++” (≥75% = ++++)
18,127 (KIGDEPPKV; listed as Homo sapiens) [compound 127],“++” (≥20% = ++)
19,316 (ILLERLWYV; listed as Homo sapiens) [compound 316],“+++” (≥50 = +++)
20,408 (VLDDSIYLV; listed as Homo sapiens) [compound 408],“++” (≥20% = ++)
21,30 (LILDWVPYI; listed as Homo sapiens) [compound 30],“+++” (≥50 = +++)
